Percent of BiFC-positive cells data for 1 substance are collected here from article PMC3070748.

This assay has as its target Gemin7 BiFC construct (UniProt Q9H840). Kind of assay: split reporter.
Sequence of UniProt Q9H840 (Q9H840 whole entry): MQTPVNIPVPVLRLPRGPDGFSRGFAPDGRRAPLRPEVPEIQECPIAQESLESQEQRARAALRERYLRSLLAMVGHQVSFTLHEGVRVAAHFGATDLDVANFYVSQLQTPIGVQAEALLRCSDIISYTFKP

As to “murine Unrip fused to a Venus fragment (BiFC construct) (from UniProt Q9Z1Z2 1-350) (natural protein)”, the percent of BiFC-positive cells worked out at 56%.
